The experiment has as its target Biotinylated Grb2 SH2 domain protein (UniProt P62993). Kind of experiment: SPR (Biacore S51), b-Grb2 amine-coupled on CM5 chip, compound in solution.

Sequence of Biotinylated Grb2 SH2 domain protein (P62993 60-152 limits assumed): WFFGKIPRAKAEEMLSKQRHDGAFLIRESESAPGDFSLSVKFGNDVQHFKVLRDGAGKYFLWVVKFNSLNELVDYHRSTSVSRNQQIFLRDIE

“Compound 6, tri-sodium salt of compound 5: 2-{(9S,10S,14R,18S)-7,16,19-Triaza-18-(carbamoylmethyl)-14-[(5-methyl indolyl)methyl]-8,17,20-trioxo-10-[4-(phosphonomethyl)phenyl]spiro[5.14]icos-11-en-9-yl}acetic acid (peptide)” returned a Kd of 1.67 nM.
